Earlier results, collected in article PMC9781680.

Molecular target: GLP1 peptide (Homo sapiens) (UniProt P01275)
Chain of UniProt P01275 (P01275 98-127): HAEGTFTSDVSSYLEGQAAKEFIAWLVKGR

- Kd: 0.5 nM
Substance: GLP1R (from UniProt P43220)
